Measurements as given in the RNAGym collection of RNA variant scans (doi:10.1073/pnas.2313332121).
This sample holds only a part of the variants without activity.

B1: TPR 5TU (parent)
chain: GGAUCUUCUCGAUCUAACAAAAAAGACAAAUCUGCCACAAAGCUUGAGAGCAUCUUCGGAUGCAGAGGCGGCAGCCUUCGGUGGCGCGAUAGCGCCAACGUUCUCAACUAUGACACGCAAAACGCGUGCUCCGUUGAAUGGAGUUUAUCAUG

Variants of: B1
Assay: polymerase ribozyme fitness, log enrichment relative to wild type (log ratio); higher = more active; in vitro selection for triplet polymerase activity
In short: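 In triplicate, a single round of in vitro selection was run on each mutant library, PCR-built and transcribed, covering one subunit of a heterodimeric triplet polymerase ribozyme. Frozen incubation at −7 °C followed annealing with a biotinylated primer, partner subunit and triplets, and extended constructs were then gel-excised, streptavidin-captured and taken through RT-PCR. Fitness is the logarithm of genotype enrichment over wild-type enrichment, from inverse-variance-weighted replicate averages of Illumina-sequenced inputs and outputs. […] only genotypes with ≥10 input reads and ≥1 read per output were kept.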

| Variant | polymerase ribozyme fitness (log ratio) |
| --- | --- |
| GGAUCUUCUCGAUCUAACACAAACGACAAAUCUGCCACAAAGCUUGAGAGAAUCUUCGGAUGCAGAGGCGGCACCCUUCGGUGGCGCGAUAGCUCCAACGUUCUCAACUAUGACACGCAAUACGCGUGCUCCGUGGAAUGGAGUUUACCAUG [A20C A24C C51A G74C G94U A121U U135G U148C] | ≤ -4.2 |
| GGAUCUUCUCGAUCUAACUAAAAAGACAAAUCUGCCACAAAGCUGGAGAGCAUCUUCGGAUGCAGAGGCGGCAGCCUUCGGUGGCGCGAUAGCGCCAACGUUCUCAACUAUGACACGCAAAACGCGUGCUCCGUUGAAUGGAGUUUAUCAUG [A19U U45G] | -0.38 |
| GGAUCUUCUCGAUCUAACACGACAGACUAAUCUGCCAAAAAGCUUGAGAGCAUCUUCGGAUGCAGAGGCGGCAGCCUUCGGUGGCGCGAUAGCGCCAACGUUCUCAACUAUGACACGCAAAACGCGUGCUCCGUUGAAUGGAGUUUAUCAUG [A20C A21G A23C A28U C38A] | ≤ -4.2 |
| GGAUCUUCUCGAUCUAACUAAAAAGACAAAUCUGCCACAAAGCUUGAGAGCAUCUUCGGAUGCAGAGGCGGCAGCCUUCGGUGGCGCGAUAGCACCAACGUUCUCAACUAUGACACGCAAAACGCGUGCUCCGUUGAAUGGAGUUUAUCAUG [A19U G94A] | -1 |
| GGAUCUUCUCGAUCUAACUAAAAAGACAAAUCUGCCACAAAGCUAGAGAGCAUCUUCGGAUGCAGAGGCGGCAGCCUUCGGUCGCGCGAUAGCGCCAACGUUCUCAACUAUGACACGCAAAACGCGUGCUCCGUUGAAUGGAGUUUAUCAUG [A19U U45A G83C] | -3.67 |
| GGAUCUUCUCGAUCUAACACUACAGACAAAUCUGCCACAAAGCUUGAGAGAAUCUUCGGAUGCAGAGGCGGCAGCCUUCGGUGGCGCGAUAGCGCCAACGUUCUCAACUAUGACACGCAAAAAGCGUGCUCCGUUGAUUGGAGUUUAUCAUG [A20C A21U A23C C51A C123A A138U] | ≤ -4.2 |
| GGAUCUUCUCGAUCUAACUAAAAAGACAAAUCUGCCACAAAGCUUGAGAGCAGCUUCGGAUGCAGAGGCGGCAGCCUUCGGUGGCGCGAUAGGGCCAACGUUCUCAACUAUGACACGCAAAACGCGUGCUCCGUUGAAUGGAGUUUAUCAUG [A19U U53G C93G] | ≤ -4.2 |
| GGAUCUUCUCGAUCUAACUAAAAAGACAAACCUGCCACAAAGCUUGAGAGUAUCUUCGGAUGCAGAGGCGGCAGCCUUCGGUGGCGCGAUAGCGCCAACGUUCUCAACUAUGACACGCAAAACGCGUGCUCCGUUGAAUGGAGUUUAUCAUG [A19U U31C C51U] | 0.159 |
| GGAUCUUCUCGAUCUAACUAAAAAGACAAAUCUGCCACAAAGCUUGAGAGCAUCAUCGUAUGCAGAGGCGGCAGCCUUCGGUGGCGCGAUAGCGCCAACGUUCUCAACUAUGACACGCAAAACGCGUGCUCCGUUGAAUGGAGUUUAUCAUG [A19U U55A G59U] | 0.528 |
| GGAUCUUCUCGAUCUAACACAUAAGACAAAUCUGCCACAAAGCUUGAGAGCAUCUUCAGAUGCAGAGGCGGCAGCCCUCGGUGGCGCGAUAGCGCGAACGUUCUCAACUAUGACACGCAAAACGCGUGCUCCGUUGAAUGGAGUUUAUCAUG [A20C A22U G58A U77C C96G] | ≤ -4.2 |
| GGAUCUUCUCGAUCUAACUAAAAAGACAAAACUGCCACAAAGCUUGAGAGCAUCUUCCGAUGUAGAGGCCGCAGCCUUCGGUGGCGCGAUAGCGUCAACGUUCUCAACUAUGACACGCAAAACGCGUGCUGCGUUGAAUGGAGUUUAUCAUU [A19U U31A G58C C63U G70C C95U C131G G152U] | ≤ -4.2 |
| GGAUCUUCUCGAUCUAACUAAAAAGACAAAUCUGCCACAAAGCUUGAGAGCAUCUUCGCAUGCAGAGGCGGCAGCCUUCGGUGGCGCGUUACCGCCAACGUUCUCAACUAUGACACGCAAGACGCGUGCUCCGUUGAAUGGAGUUUAUCAUG [A19U G59C A89U G92C A121G] | -2.25 |
| GGAUCUUCUCGAUCUAACUAAAAAGACAAAUCUGCCACAAAGCUUGAGAGCAUCUUCGGAUGCAGAGGCGGCAGCCUUCGGUGCCGCGAUAGCGCCAACGUUCUCAACUAUGACACGCAAAACGCGUGCUCCGUUGAAUGGAGUUUAUCAUG [A19U G84C] | -2.08 |
| GGAUCUUCUCGAUCUAACACAAUAGACAUAUCUGCCACAAAGCUUGAGAGCAUCUUCGGAUGCAGAGGCGGCAGCCUUCGGUGGCGCGAUAACGCCAACGUUCUCAACUUUGACACGCAAAACGCGUGCUCCGUUGAAGGGGGGUUAUCAUG [A20C A23U A29U G92A A110U U139G A142G U144G] | ≤ -4.2 |
| GGAUCUUCUCGAUCUAACUAAAAAGACAAAUCUGCCACAAAGCUUGAGAGCAUCUACGGGUGCAGAGGCGGCAGCCUUCGGUGGCGCGAUAGCGCCAACGUUCGCAACUAUGACACGCAAAACGCGUGCUCCGUUGAAUGGAGUUUAUCAUA [A19U U56A A60G U104G G152A] | -2.82 |
| GGAUCUUCUCGAUCUAACACAAAGGACAAAUCUGCCACAAAGCUUGAGAGCAUCUUCGGAUGCAGAGGCGGCAGCCUUCGGUGGCGCGAUAGCGCCAACGUUCUCAACUAUGACACGCAAAACGCGUGCUCCGUUGAAUGGAGUUUAUCAUG [A20C A24G] | -4.02 |
| GGAUCUUCUCGAUCUAACUAAAAAGACAAAUCUGCCACAAAGCUUGAGAGCAUCUUCGGAUGCAGAGGCGGCAGCCUUCGCUGGUGCGAUAGCGCCAACGUUCUCAACUAUGACACGCAAAACGCGUGCUCCGUUGAAUGGAGUAUAUCAUG [A19U G81C C85U U145A] | -0.303 |
| GGAUCUUCUCGAUCUAACUAAAAAGACAAAUCCGCCACAAAGCUUGAGAGCAUCUUCGGAUGCAGAGGUGGCAGCCUUCGGUGGCGCGAUAGCGCCAACGUUCUCAACUAUGACACGCAAAACGCUUGCUCCGUUGAAUGGAGUUUAUCAUG [A19U U33C C69U G126U] | -0.898 |
| GGAUCUUCUCGAUCUAACUAAAAAGACAAAUCUGCCACAAAGCUUGAGAGCAUCGUCGGAUGCAGAGGCGGCAGCCUUCGGUGGGGCGAUAGCGCUAACGUUCUCAACUAUGACAAGCAAAACGCGUGCUCCGUUGAAAGGAGUUUAUCAUG [A19U U55G C85G C96U C116A U139A] | ≤ -4.2 |
